Experimental data taken from paper PMC7145699, “Structural insights into target DNA recognition by R2R3-MYB transcription factors”.

T1: WER L59A (Arabidopsis, UniProt Q9SEI0 12-130, L59A)
T1 sequence: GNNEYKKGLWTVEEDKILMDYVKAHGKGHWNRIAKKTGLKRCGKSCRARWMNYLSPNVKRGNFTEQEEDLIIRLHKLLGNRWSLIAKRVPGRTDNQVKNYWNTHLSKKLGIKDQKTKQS

T2: WER L59E (Arabidopsis, UniProt Q9SEI0 12-130, L59E)
T2 sequence: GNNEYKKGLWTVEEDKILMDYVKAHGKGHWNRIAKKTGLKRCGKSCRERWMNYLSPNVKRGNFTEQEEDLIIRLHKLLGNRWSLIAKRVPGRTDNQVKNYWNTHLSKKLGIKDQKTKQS

T3: WER K55A (Arabidopsis, UniProt Q9SEI0 12-130, K55A)
T3 sequence: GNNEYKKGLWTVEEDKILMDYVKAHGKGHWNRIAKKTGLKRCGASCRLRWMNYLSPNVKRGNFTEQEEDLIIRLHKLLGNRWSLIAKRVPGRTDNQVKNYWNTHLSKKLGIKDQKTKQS

B1: 5mC12 DNA (AA5mC) (dsDNA)
DNA 1: AAATTCTCCAACCGCATTTTC
DNA 2: GAAAATGCGGTTGGAGAATTT
modifications: 5mC at C12 of strand 1
B2: A12:T11* (dsDNA)
DNA 1: AAATTCTCCAAACGCATTTTC
DNA 2: GAAAATGCGTTTGGAGAATTT
B3: GL2 promoter WER target DNA (dsDNA)
DNA 1: AAATTCTCCAACCGCATTTTC
DNA 2: GAAAATGCGGTTGGAGAATTT
B4: T12:A11* (dsDNA)
DNA 1: AAATTCTCCAATCGCATTTTC
DNA 2: GAAAATGCGATTGGAGAATTT
B5: G12:C11* (dsDNA)
DNA 1: AAATTCTCCAAGCGCATTTTC
DNA 2: GAAAATGCGCTTGGAGAATTT

Columns and labels:
Assay in all cases: ITC; ITC: 150 mM NaCl, 20 mM HEPES pH 7.5, 25 C, 400 uM protein into 20 uM DNA; EMSA: 150 mM NaCl, 20 mM Tris-HCl pH 8.0, on ice 1 h, 0.1 uM DNA, 6% native PAGE 0.5x TBE
Conditions in all cases: protein: recombinant; tags: 6xHis-SUMO removed by Ulp1; blunt
WER L59A = molecular target: T1, WER L59A
WER L59E [1] = molecular target: T2, WER L59E
WER L59E [2] = molecular target: T2, WER L59E; remark: listed apart in the source
WER K55A = molecular target: T3, WER K55A

Binder | binding result (WER L59A) | further results
B1 | binds | binding signal (WER L59E [1]): ~4 fold decrease in affinity vs N1
B2 | binds | –
B3 | – | Kd (WER L59A): 47 nM; Kd (WER L59E [2]): 47.8 nM; binding signal (WER K55A): > 40 fold decrease in affinity vs WT
B4 | binds | –
B5 | binds | –
